Among the data in patent publication US20230287088A1 (BIONTECH, published 2023) are EC50, IC50 and IC90 values, retold here.

Test [1] deals with T1, Mouse-Fc-tagged SARS-CoV2 S1-RBD (Sino Biologicals) recombinant protein (SARS-CoV-2, UniProt P0DTC2 319-541).
T1 construct: domain: S1-RBD
Briefly: ELISA on coated S1-RBD-mFc. For orientation: In an ELISA, binding on a coated surface is turned into a signal by an enzyme label.

Test [2] concerns the target T1, Mouse-Fc-tagged SARS-CoV2 S1-RBD (Sino …). Briefly: competition ELISA: blocks S1-RBD-mFc binding to coated ACE-2 ECD.

Residue numbers refer to the chain shown, from its start.

B1: 460 (bispecific antibody)
heavy chain: QSVEESGGRLVTPGTPLTLTCTVSGFSLSSYAMNWVRQAPGKGLEWIGIISSSGSTYYASWAKGRFTISKTSTTVDLKITSPTTEDTATYFCARVGAGYAGYGYDNYYGMDPWGPGTLVTVSSASTKGPSVFPLAPSSKSTSGGTAALGCLVKDYFPEPVTVSWNSGALTSGVHTFPAVLQSSGLYSLSSVVTVPSSSLGTQTYICNVNHKPSNTKVDKRVEPKSCDKTHTCPPCPAPEAAGGPSVFLFPPKPKDTLMISRTPEVTCVVVDVSHEDPEVKFNWYVDGVEVHNAKTKPREEQYNSTYRVVSVLTVLHQDWLNGKEYKCKVSNKALPAPIEKTISKAKGQPREPQVYTLPPSREEMTKNQVSLTCLVKGFYPSDIAVEWESNGQPENNYKTTPPVLDSDGSFFLYSKLTVDKSRWQQGNVFSCSVLHEALHSHYTQKSLSLSPGK
light chain fused to scFv: AIQMTQSPSSLAASVGDTVTITCKASEDIGYGLNWYQQKLGIAPKLLIYGANTLESGVPSRFSGSGSETDYTLTISSVQAEDAGIYYCQQGYSTPLTFGAGTKVEIKRTVAAPSVFIFPPSDEQLKSGTASVVCLLNNFYPREAKVQWKVDNALQSGNSQESVTEQDSKDSTYSLSSTLTLSKADYEKHKVYACEVTHQGLSSPVTKSFNRGECDVPGGSGGGGSGGGGSGGGGSQMQLVQSGTEVKKPGESLKISCKGSGYGFITYWIGWVRQMPGKCLEWMGIIYPGDSETRYSPSFQGQVTISADKSINTAYLQWSSLKASDTAIYYCAGGSGISTPMDVWGQGTTVTVGGGGSGGGGSGGGGSGGGGSDIQLTQSPDSLAVSLGERATINCKSSQSVLYSSINKNYLAWYQQKPGQPPKLLIYWASTRESGVPDRFSGSGSGTDFTLTISSLQAEDVAVYYCQQYYSTPYTFGCGTKVEIK
notes: also called LC of P043.A.00020.D06 with a C-terminal fusion of a scFv of anti-S1 antibody; HC of P043.A.00020.D06 as IgG1-LALA-LS
As to B1, in test [1], the EC50 was 0.0153 µg/mL. Moreover, in test [2], the IC50 was 0.0765 µg/mL and the IC90 worked out at 5.69 µg/mL.

B2: 455 (bispecific antibody)
heavy chain: QSVEESGGRLVTPGTPLTLTCTVSGFSLSSYAMSWVRQAPGKGLEWIGIISSSGSTYYASWAKGRFTISKTSTTVDLKITSPTTEDTATYFCARAMYPGYSTGVYNIWGPGTLVTVSLASTKGPSVFPLAPSSKSTSGGTAALGCLVKDYFPEPVTVSWNSGALTSGVHTFPAVLQSSGLYSLSSVVTVPSSSLGTQTYICNVNHKPSNTKVDKRVEPKSCDKTHTCPPCPAPEAAGGPSVFLFPPKPKDTLMISRTPEVTCVVVDVSHEDPEVKFNWYVDGVEVHNAKTKPREEQYNSTYRVVSVLTVLHQDWLNGKEYKCKVSNKALPAPIEKTISKAKGQPREPQVYTLPPSREEMTKNQVSLTCLVKGFYPSDIAVEWESNGQPENNYKTTPPVLDSDGSFFLYSKLTVDKSRWQQGNVFSCSVLHEALHSHYTQKSLSLSPGK
light chain fused to scFv: B1 light chain fused to scFv with G32E, S93N, L96N
notes: also called LC of P043.A.00017.E07 with a C-terminal fusion of a scFv of anti-S1 antibody; HC of P043.A.00017.E07 as IgG1-LALA-LS
Turning to B2, in test [1], the EC50 stood at 0.0116 µg/mL. Besides, in test [2], the IC50 amounted to 0.0481 µg/mL and the IC90 is 0.868 µg/mL.

B3: 454 (bispecific antibody)
heavy chain: QSVEESGGRLVTPGTPLTLTCTVSGFSLSKYAMSWVRQAPGKGLEWIGIISSGGSTYYASWAKGRFTISKTSSTTVDLKITSPTTEDTATYFCARAGYPGYSPHYFNIWGPGTLVTVSLASTKGPSVFPLAPSSKSTSGGTAALGCLVKDYFPEPVTVSWNSGALTSGVHTFPAVLQSSGLYSLSSVVTVPSSSLGTQTYICNVNHKPSNTKVDKRVEPKSCDKTHTCPPCPAPEAAGGPSVFLFPPKPKDTLMISRTPEVTCVVVDVSHEDPEVKFNWYVDGVEVHNAKTKPREEQYNSTYRVVSVLTVLHQDWLNGKEYKCKVSNKALPAPIEKTISKAKGQPREPQVYTLPPSREEMTKNQVSLTCLVKGFYPSDIAVEWESNGQPENNYKTTPPVLDSDGSFFLYSKLTVDKSRWQQGNVFSCSVLHEALHSHYTQKSLSLSPGK
light chain fused to scFv: B1 light chain fused to scFv with G32E, S63T, L96P
notes: also called LC of P043.A.00023.A08 with a C-terminal fusion of a scFv of anti-S1 antibody; HC of P043.A.00023.A08 as IgG1-LALA-LS
In the case of B3, the EC50 in test [1] stood at 0.0178 µg/mL. In addition, in test [2], the IC50 was 0.0435 µg/mL and the concentration for an effect of 90% (IC90) stood at 0.453 µg/mL.

A word on the EC50: it is the concentration needed to bring the measured effect to its halfway point. As a reminder, the IC50 is the concentration that gives 50% inhibition. In general, IC90 refers to the point of the concentration-response curve where the effect stands at 90%.
